Test results published in PMC8537947, “Improved Radiolytic Stability of a ^68Ga-labelled Collagelin Analogue for the Imaging of Fibrosis” (Pharmaceuticals, 2021).
Bridge positions count the residues as written; N and C are the ends. Square brackets hold non-standard residues; d marks the D form. Peptide text beside a SMILES is read from it. * marks the point of attachment. NOTA = O=C(O)CN1CCN(CC(=O)O)CCN(CC(=O)*)CC1; Nle = CCCC[C@H](N)C(=O)O; AEEA = NCCOCCOCC(=O)O

Assay: in vivo
Details: female, BALB/c, mouse, iv, total radioactivity
Protocol: The animals (BALB/c female mice, n = 6) were administered with carbon tetrachloride (CCl4) formulated in a corn oil solution (20%, 0.5 mg per gram of body weight) into the lower side of the abdomen three times a week for three weeks. The wellbeing of the animals was monitored for 30 min after the injection and once per day afterwards. The development of liver fibrosis was confirmed by post-mortem Sirius Red staining of the PFA liver biopsies.
Healthy mice (n = 4, 19.6 ± 1.0 g) and mice with CCl4 induced liver fibrosis (n = 5, 21.55 ± 1.12 g) were intravenously administered with [^68Ga]Ga-NO2A-[Nle^13]-Col (5.2 ± 2.1 MBq, 0.31 ± 0.09 ug and 6.1 ± 2.1 MBq, 0.35 ± 0.08 ug) and the tracer organ distribution was studied after a 60 min incubation ex vivo (Table S1). The weight of the excised organs of interest (blood, heart, lung, liver, pancreas, spleen, kidney, intestines, muscle, brain) was noted and the radioactivity was measured using an automated gamma counter (2480 Wizard2^TM, PerkinElmer, Waltham, MA, USA) with a correction for dead-time and radioactivity decay.

Question: With CCCC[C@@H]1NC(=O)[C@H](C(C)C)NC(=O)[C@H](CCCNC(=N)N)NC(=O)CNC(=O)[C@@H]2CCCN2C(=O)[C@@H](NC(=O)COCCOCCNC(=O)CN2CCN(CC(=O)O)CCN(CC(=O)O)CC2)CSSC[C@@H](C(=O)O)NC(=O)[C@@H]2CCCN2C(=O)CNC(=O)[C@H](CCC(=O)O)NC(=O)[C@H](CC(=O)O)NC(=O)[C@H](CC(=O)O)NC(=O)CNC(=O)[C@H](CC(C)C)NC(=O)[C@H](Cc2c[nH]cn2)NC(=O)[C@H](CC(C)C)NC(=O)CNC(=O)[C@H](Cc2c[nH]cn2)NC1=O [[^68Ga]Ga-NO2A-[Nle^13]-Col, [^68Ga]Ga-NOTA-PEG2-c[CPGRVNleHGLHLGDDEGPC], metal not drawn] ({NOTA-AEEA}-CPGRV[Nle]HGLHLGDDEGPC-OH; disulfide 1-18) as the compound, how does the SUV at 1 h (5.2 MBq, SUV lungs (LU)) read?
Answer: The SUV at 1 h was 0.0679 SUV.

Question: And the SUV at 1 h (6.1 MBq, SUV kidneys (KI))?
Answer: Its SUV at 1 h is 2.12 SUV.
